The record followed here is article PMC6356842 (Toxins, 2019).

Common to all, as to conditions: both partners purified
Experiment [1] addresses T1, Css4 toxin (Centruroides suffusus, UniProt P60266).
T1 construct: source: purified from scorpion venom
Description: SPR. (In general: SPR reads the build-up and loss of mass on a sensor chip optically.)

The target in experiment [2] is T2, Cn2 toxin (Centruroides noxius).
T2 construct: source: purified from scorpion venom
Kind of experiment: SPR.

Experiment [3] deals with T3, Cll1 toxin (Centruroides limpidus).
T3 construct: source: purified from scorpion venom
T3 chain: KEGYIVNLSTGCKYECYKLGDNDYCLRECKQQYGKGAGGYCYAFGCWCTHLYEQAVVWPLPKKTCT
Description: SPR.

The target of experiment [4] is T4, Cll2 toxin (Centruroides limpidus).
T4 construct: source: purified from scorpion venom
T4 chain: T3 chain with I5L, L8H, Y17F, T49N, T66N
Description: SPR.

Experiment [5] has as its target T5, Ct1a toxin (Centruroides tecomanus).
T5 construct: source: purified from scorpion venom
T5 chain: T3 chain with I5L, L8H, Y17F, K30R, T66N
Description: SPR.

For experiment [6], the target named is T6, Css2 toxin (Centruroides suffusus).
T6 construct: source: purified from scorpion venom
T6 chain: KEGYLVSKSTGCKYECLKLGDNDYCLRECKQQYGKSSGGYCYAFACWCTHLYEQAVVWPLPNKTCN

Experiment [7] addresses T7, CeII9 toxin (Centruroides elegans).
T7 construct: also called Cell9; source: purified from scorpion venom
T7 chain: T3 chain with I5L, L8H, Y17F, K30R, Q32K, T66N

In experiment [8] the target is T2, Cn2 toxin. Description: SPR. The source holds these as a separate data set.
For experiment [9], the target named is T6, Css2 toxin. Description: SPR.

Substitutions are numbered along the chain they refer to. Names may count otherwise.

B1: scFv 10FG2 (scFv, V domains shown)
VH: QVNLRESGGGLVQPGGSLRLSCAASGFSFGSYGMHWVRQAPGKGLEWVAVISYGGGSKYYADSVKGRFTISRDNSKNTLYLQMNSLRAEDTAVYYCAKDARDCLLCSDWTFDLWGRGTLVTVSS
VL: NFMLTQPHSASGTPGQRVTISCSGSSSNIGSNTVNWYRHLPGSAPELLIGSHNQRPSGVPDRFSGSKSGTSASLAISGLQSEDEADYYCAAWDDSTLGYVFGTGTKLTVL
notes: also called 10F5; scFv 10F5
Usually Kd stands for the free concentration of one partner at which half of the binding sites on the other are occupied at equilibrium, for simple one-to-one binding. The low end stands for a tighter complex, the high end for a looser complex. As a reminder, the koff is the rate constant with which the complex falls apart. Low readings indicate slow dissociation, high ones fast dissociation. Usually kon stands for a measure of how fast the partners come together. A lower kon goes with slower complex formation. Consider B1, for which the binding result in experiment [1] is “binds”. For the same molecule, the Kd is 0.7 nM in experiment [2]; 0.23 nM in [3]; 4.2 nM in experiment [4]; 8 nM in [5]; 2.75 nM in experiment [6]; 6.1 nM in [7]. Further, the “TR (time of residence)” value in [2] stood at 163 min; in experiment [3] it was 264 min; in [4], 18.5 min; in experiment [5], 16.7 min. Moreover, the koff was 0.000102 s⁻¹ in experiment [2]; 6.3e-05 s⁻¹ in experiment [3]; 0.0009 s⁻¹ in experiment [4]; 0.001 s⁻¹ in experiment [5]; 0.00055 s⁻¹ in experiment [6]; 0.000925 s⁻¹ in experiment [7]. Besides, the kon in experiment [2] stood at 150000 M⁻¹ s⁻¹; in experiment [3] it was 265000 M⁻¹ s⁻¹; in [4] it was 220000 M⁻¹ s⁻¹; in experiment [5] it was 170000 M⁻¹ s⁻¹; in experiment [6], 195000 M⁻¹ s⁻¹; in [7], 150000 M⁻¹ s⁻¹.

B2: scFv 10F1 (scFv, V domains shown)
VH: B1 VH with S107A
VL: B1 VL with S25I
notes: VH, linker (G125 to S139), VL on one chain; numbers run through the whole scFv; 10F with A204G; source: expression vector pSyn1, purified (Ni2+-NTA, Superdex 75 gel filtration), monomer
As for B2, the binding result in experiment [8], in experiment [9] and in [1] was “binds” in each case.

B3: scFv 10F (scFv, V domains shown)
VH: B1 VH with S107A
VL: B1 VL with S25I, G65A
For B3, the binding result in experiment [8] is reported as “binds”.

B4: scFv 10F4 (scFv, V domains shown)
VH: B1 VH with T110N
VL: B1 VL
As for B4, the binding result in experiment [8], in experiment [9] and in [1] was “binds” throughout.
